The results in this text go back to patent US20240261333A1, “NOVEL TARGETS FOR ENHANCING ANTI-TUMOR IMMUNITY” (THE BROAD INSTITUTE, INC., priority 2021, published 2024).

In this experiment the target is T1, B3GNT2 (Homo sapiens, UniProt Q9NY97).
T1 construct: The respective ORFs of candidate genes [CD274 (NM_014143), MCL1 (NM_021960), JUNB (NM_002229), and B3GNT2 (NM_006577)] were synthesized; expressed in transfected cells; host or cells: A375 melanoma cells (lentiviral ORF overexpression)
T1 sequence (Q9NY97 1-397): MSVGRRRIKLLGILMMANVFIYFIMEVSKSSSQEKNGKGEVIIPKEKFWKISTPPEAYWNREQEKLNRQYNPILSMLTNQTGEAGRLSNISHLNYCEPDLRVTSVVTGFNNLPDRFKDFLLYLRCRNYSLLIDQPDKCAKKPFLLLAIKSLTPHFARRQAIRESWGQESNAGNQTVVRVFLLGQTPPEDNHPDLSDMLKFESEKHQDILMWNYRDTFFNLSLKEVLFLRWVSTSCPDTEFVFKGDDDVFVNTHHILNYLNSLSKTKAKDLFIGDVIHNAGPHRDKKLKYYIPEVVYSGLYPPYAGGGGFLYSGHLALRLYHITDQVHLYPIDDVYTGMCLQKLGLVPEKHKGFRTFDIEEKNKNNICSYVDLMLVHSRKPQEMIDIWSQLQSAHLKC
Briefly: Co-IP of FLAG-tagged B3GNT2 followed by mass spectrometry. It is filed as cell-based. More on the design: C-term IgG / C-term flag: unit not given here. As for the experimental part: Cells were plated in 10-cm cell culture dishes and grown to 60-80% confluency. For each condition, two biological replicates were harvested for co-IP. Cells were washed with PBS and 4 mL of lysis buffer (20 mM HEPES, 1% Triton X-100, 150 mM NaCl, 1 mM EDTA, and 10% glycerol) containing protease inhibitor cocktail was added. Cells were scraped and lysate was incubated at 4° C. under rotary agitation for 1 h. Lysate was centrifuged at 14,000×g for 10 min at 4° C. Supernatant was transferred to a new tube and an aliquot was taken as the input. […] For Western blots, 10 μg/mL Chicken Anti-FLAG (Aves labs ET-DY100) and IgY control (R&D Systems AB-101-C) antibodies were biotinylated (Thermo Fisher Scientific 90407) and added to the respective conditions. Lysates with antibodies were incubated at 4° C. under rotary agitation overnight. For each mL of lysate, 50 μL of Pierce Protein A/G Magnetic Beads (Mass spectrometry; Thermo Fisher Scientific 88803) or Pierce Streptavidin Magnetic Beads (Western blot; Thermo Fisher Scientific 88817) was washed twice with lysis buffer. Lysates with antibodies were added to the beads and incubated at 4° C. under rotary agitation for 4 h. Beads were washed with lysis buffer 3 times and resuspended in lysis buffer for storage. […] This solution was subjected to solid phase extraction to concentrate the peptides and remove unwanted reagents followed by injection onto a Shimadzu HPLC with fraction collector. Eight fractions were collected and after concentration were injected on a Waters NanoAcquity HPLC equipped with a self-packed Aeris 3 μm C18 analytical column 0.075 mm by 20 cm, (Phenomenex). Peptides were eluted using standard reverse-phase gradients. The effluent from the column was analyzed using a Thermo Orbitrap Elite mass spectrometer (nanospray configuration) operated in a data dependent manner for 54 minutes. […] Scaffold Q+S (Proteome Software) was used to provide consensus reports for the identified proteins.

The mark [1] stands for this setting: Co-IP with FLAG antibody, C-terminally FLAG-tagged B3GNT2, mass spectrometry count, unit not given.
[2] abbreviates: Co-IP with FLAG antibody, N-terminally FLAG-tagged B3GNT2, mass spectrometry count, unit not given.
The mark [3] stands for this setting: Co-IP with IgG control antibody, C-terminally FLAG-tagged B3GNT2, mass spectrometry count, unit not given.
Where [4] appears, read: Co-IP with IgG control antibody, N-terminally FLAG-tagged B3GNT2, mass spectrometry count, unit not given.
[5] abbreviates: Co-IP followed by mass spectrometry of B3GNT2, C-term tag, FLAG pull-down.
The mark [6] stands for this setting: Co-IP followed by mass spectrometry of B3GNT2, C-term tag, IgG pull-down.
[7] abbreviates: Co-IP followed by mass spectrometry of B3GNT2, N-term tag, FLAG pull-down.
The mark [8] stands for this setting: Co-IP followed by mass spectrometry of B3GNT2, N-term tag, IgG pull-down.

SLC27A4 showed a C-term flag under setting [1] of 2. For the same substance, the “N-term FLAG” value under setting [2] is given as 0. In addition, the “C-term IgG” value under setting [3] worked out at 0. Further, the “N-term IgG” value under setting [4] worked out at 0.

With SPTAN1, the C-term flag under setting [5] stood at 3. In addition, the “C-term IgG” value under setting [6] was 0. The “N-term FLAG” value under setting [7] turned out to be 0. Besides, the “N-term IgG” value under setting [8] amounted to 0.

On to SQSTM1, for which, under setting [1], the C-term flag is reported as 43. Under setting [2], the “N-term FLAG” value came to 3. The “C-term IgG” value under setting [3] was 3. In addition, the “N-term IgG” value under setting [4] was 0.

The substance SRSF1 yielded a C-term flag under setting [5] of 9. Besides, the “C-term IgG” value under setting [6] is 3. For the same substance, under setting [7], the “N-term FLAG” value is on record as 4. Besides, the “N-term IgG” value under setting [8] is given as 5.

As for SRSF3, under setting [5], the C-term flag came out at 7. Also, the “C-term IgG” value under setting [6] was 3. Under setting [7], the “N-term FLAG” value is on record as 6. Further, the “N-term IgG” value under setting [8] came to 4.

Under setting [5], SSRP1 gave a C-term flag of 6. Besides, the “C-term IgG” value under setting [6] is given as 0. Further, under setting [7], the “N-term FLAG” value is reported as 0. Moreover, under setting [8], the “N-term IgG” value amounted to 0.

Under setting [1], STRAP gave a C-term flag of 3. Also, the “N-term FLAG” value under setting [2] turned out to be 4. Under setting [3], the “C-term IgG” value is 0. Besides, the “N-term IgG” value under setting [4] is 0.

Substance SUMF2 registered a C-term flag under setting [1] of 3. Further, the “N-term FLAG” value under setting [2] is given as 0. In addition, the “C-term IgG” value under setting [3] was 0. Besides, under setting [4], the “N-term IgG” value turned out to be 0.

Turning to SUPT16H, under setting [5], the C-term flag was 3. The “C-term IgG” value under setting [6] was found to be 0. In addition, the “N-term FLAG” value under setting [7] came out at 0. Under setting [8], the “N-term IgG” value worked out at 0.

The substance SYNM yielded a C-term flag under setting [5] of 5. In addition, under setting [6], the “C-term IgG” value is reported as 2. Further, the “N-term FLAG” value under setting [7] is given as 5. Also, under setting [8], the “N-term IgG” value is recorded as 5.

Substance TAF15 had a C-term flag under setting [5] of 10. For the same substance, the “C-term IgG” value under setting [6] came out at 4. Also, the “N-term FLAG” value under setting [7] is reported as 5. Besides, under setting [8], the “N-term IgG” value came out at 10.

On to TCP1, for which the C-term flag under setting [5] is on record as 3. Also, the “C-term IgG” value under setting [6] turned out to be 0. For the same substance, the “N-term FLAG” value under setting [7] is given as 0. The “N-term IgG” value under setting [8] stood at 0.

For the substance TECR, the C-term flag under setting [1] was 9. For the same substance, the “N-term FLAG” value under setting [2] stood at 0. Also, the “C-term IgG” value under setting [3] amounted to 0. In addition, the “N-term IgG” value under setting [4] came out at 0.

As for TFAM, under setting [5], the C-term flag is reported as 3. The “C-term IgG” value under setting [6] is given as 0. Also, the “N-term FLAG” value under setting [7] worked out at 0. Further, the “N-term IgG” value under setting [8] was 0.

TNC had a C-term flag under setting [1] of 10. In addition, the “N-term FLAG” value under setting [2] was determined as 0. Further, under setting [3], the “C-term IgG” value amounted to 0. Besides, under setting [4], the “N-term IgG” value worked out at 0.

Consider TNKS1BP1, for which the C-term flag under setting [5] is 8. The “C-term IgG” value under setting [6] is reported as 2. Also, the “N-term FLAG” value under setting [7] was 2. The “N-term IgG” value under setting [8] was 4.

TOR1AIP2 had a C-term flag under setting [1] of 2. For the same substance, the “N-term FLAG” value under setting [2] worked out at 0. Further, under setting [3], the “C-term IgG” value is 0. Under setting [4], the “N-term IgG” value amounted to 0.

As to TPI1, the C-term flag under setting [5] worked out at 2. For the same substance, under setting [6], the “C-term IgG” value was 0. Moreover, the “N-term FLAG” value under setting [7] was found to be 3. Further, the “N-term IgG” value under setting [8] worked out at 2.

TRIM21: the C-term flag under setting [5] is reported as 0. Also, the “C-term IgG” value under setting [6] is given as 0. Moreover, under setting [7], the “N-term FLAG” value is reported as 6. Besides, the “N-term IgG” value under setting [8] amounted to 0.

Under setting [1], TUBA1B yielded a C-term flag of 0. For the same substance, the “N-term FLAG” value under setting [2] is 76. Further, the “C-term IgG” value under setting [3] worked out at 0. In addition, under setting [4], the “N-term IgG” value is listed as 0.

The substance TUBB returned a C-term flag under setting [1] of 117. Besides, the “N-term FLAG” value under setting [2] was 164. The “C-term IgG” value under setting [3] is 10. Besides, the “N-term IgG” value under setting [4] amounted to 10.

For the substance TUBB2A, under setting [1], the C-term flag turned out to be 0. Moreover, the “N-term FLAG” value under setting [2] is listed as 128. In addition, the “C-term IgG” value under setting [3] was 0. The “N-term IgG” value under setting [4] is recorded as 0.

Under setting [1], TUBB3 showed a C-term flag of 82. Further, the “N-term FLAG” value under setting [2] is given as 115. Under setting [3], the “C-term IgG” value is recorded as 0. Further, the “N-term IgG” value under setting [4] came out at 0.

Regarding TUBB4B, under setting [1], the C-term flag was 119. In addition, under setting [2], the “N-term FLAG” value turned out to be 161. Besides, the “C-term IgG” value under setting [3] is on record as 13. In addition, the “N-term IgG” value under setting [4] is 0.

In the case of UGGT1, the C-term flag under setting [1] is 5. Further, the “N-term FLAG” value under setting [2] is given as 2. The “C-term IgG” value under setting [3] stood at 0. Moreover, the “N-term IgG” value under setting [4] is 0.

As to VIM, the C-term flag under setting [5] is 411. The “C-term IgG” value under setting [6] is 337. The “N-term FLAG” value under setting [7] was found to be 402. Besides, the “N-term IgG” value under setting [8] amounted to 452.

As to XRCC5, under setting [1], the C-term flag is given as 3. Further, the “N-term FLAG” value under setting [2] is 0. Further, the “C-term IgG” value under setting [3] is given as 0. The “N-term IgG” value under setting [4] came to 0.

The substance YBX3 registered a C-term flag under setting [1] of 7. The “N-term FLAG” value under setting [2] is 0. The “C-term IgG” value under setting [3] was found to be 0. The “N-term IgG” value under setting [4] is 0.
